Where a chain is given by its changes, count along the chain named.
T1: ICOS-Ig (human, UniProt Q9Y6W8)
T1 construct: extracellular domain
T1 sequence (fusion chain, looked up): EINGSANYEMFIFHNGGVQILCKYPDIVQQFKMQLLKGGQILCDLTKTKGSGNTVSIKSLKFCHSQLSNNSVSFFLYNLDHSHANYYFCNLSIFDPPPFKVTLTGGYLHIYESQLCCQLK

B1: 3C2 human monoclonal antibody (antibody, IgG1, V domains shown)
VH: QVQLQESGPGLVKPSETLSLTCTISGGSISNYYWNWIRQPPGKGLEWIGYIYYSTSTKYNPSLKSRVTMSVETSKNQFSLKLSSVTAADTAVYYCARVKVYSTGWFFDYWGQGTLVTVSS
VL: AIQLTQSPSSLSASVGDRVTITCRASQGISSALAWYQQKPGKAPKLLIYDASSLESGVPSRFSGSGSGTDFTLTISSLQPEDFATYYCQQFNSYPLTFGGGTKVEIK
B2: 11E2 human monoclonal antibody (antibody, IgG1, V domains shown)
VH: EVQLVESGGGVIRPGGSLRLSCAASGFTFDDYGMSWVRQAPGKGLEWVSGINWNGGSTGYAASVKGRFTISRDNAKNSLYLQMNSLRAEDSALYYCARDYYYGPGSPNYFYYAMDVWGQGTTVTVSS
VL: B1 VL with A1D, L4M, A32W, G41E, L46S, D50A, E55Q, F91Y, L96R, G100Q
notes: kappa light chain (VK L15)
B3: 1B4 human monoclonal antibody (antibody, IgG1, V domains shown)
VH: QITLKESGPTLVKPTQTLTLTCTFSGFSLNTIGVGVNWIRQPPGKALEWLALIYWDDDKRYSPSLKRRLTISKDTSKNQVVLTMTNMDPVDTATYYCAHSGITEVRGVIIHYYGMDVWGQGTTVTVSS
VL: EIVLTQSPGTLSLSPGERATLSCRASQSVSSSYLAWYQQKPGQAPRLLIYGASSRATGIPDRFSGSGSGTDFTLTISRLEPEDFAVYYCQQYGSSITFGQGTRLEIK
notes: human antibody purified from hybridoma, kappa light chain (VK A27)
B4: 6A5 human monoclonal antibody (antibody, V domains shown)
VH: B3 VH with N30S, I32S, N37G, R67S, S72T, T85A, S100I, G101R, H111S
VL: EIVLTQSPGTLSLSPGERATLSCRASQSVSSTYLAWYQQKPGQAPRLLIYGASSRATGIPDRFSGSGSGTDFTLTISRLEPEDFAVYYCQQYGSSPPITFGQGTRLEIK
notes: kappa light chain (VK A27)
B5: 11-E8D9 (antibody, V domains shown)
VH: B3 VH with N30S, I32S, N37G, R67S, S72T, S100T, G101S, V108A, H111Y
VL: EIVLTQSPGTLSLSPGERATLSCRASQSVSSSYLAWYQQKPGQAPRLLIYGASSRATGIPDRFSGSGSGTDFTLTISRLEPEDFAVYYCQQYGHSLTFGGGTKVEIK
notes: also called 11E8D9.3; E8D9 human monoclonal antibody
B6: E4H9 human monoclonal antibody (antibody, V domains shown)
VH: QVTLRESGPALVKPTQTLTLTCTFSGFSLSTSGMCVSWIRQPPGKALEWLALIDWDDVKYYSSSLKTRLTISKDTSKNQVVLTMTDMDPVDTATYYCARIRFTMFRGVYYYYYGLDVWGQGTTVTVSS
VL: not shown
notes: kappa light chain (VK A27)
B7: 10H6 human monoclonal antibody (antibody, V domains shown)
VH: QVQLVESGGGVVQPGRSLRLSCAASGFTFSSYDMHWVRQAPGKGLEWVAAIWNDGSNKYYADSVKGRFTISRDNSKNTLYLQMNSLRAEDTAVYYCARDRITMVRGVITQYYGMDVWGQGTTVTVSS
VL: DIQLTQSPSSLSASVGDRVTITCRVSQGISSYLNWYRQKPGKVPKLLIYSASNLQSGVPSRFSGSGSGTDFTLTISSLQPEDVATYYGQRTYNAPYTFGQGTKLEIK
B8: 11-4C9 (antibody, V domains shown)
VH: QITLKESGPTLVKPTQTLTLTCTFSGFSLSTSGVGVAWIRQPPGKALEWLALIYWDDDKRYSPSLKSRLTITKDTSKNQVVLTMSNMDPVDTATYYCAHTRIAEVRGVIYYYYGIDVWGQGTTVTVSS
VL: EIVLTQSPGTLSLSPGERATLSCRASQSVSSTYLVWYQQKPGQAPRLLIYGASSRATGIPDRFSGSGSGTDFTLTISRLEPEDFAVYYCQQYGSSWTFGQGTKVEIK
notes: The prefix 11- appears only on the sheets; also called 4C9 human monoclonal antibody

Molecular target: T1, ICOS-Ig
Experiment: ELISA, plate coated with receptor-Ig fusion, antibody at 1 ug/mL, HRP-conjugated detection antibody
Procedure: (§1) ELISA plates were coated overnight with fusion proteins consisting of the extracellular domains of a panel of CD28 receptor family molecules fused to the Fc portion of human IgG (Table 4). The plates were washed and blocked to minimize non-specific binding. A panel of anti-BTLA antibodies and isotype control antibodies (Table 5), and positive control detection antibodies (Table 3), all diluted to 1 ug/mL, were added in duplicate to the assay plates for one hour. After extensive washing the appropriate HRP-conjugated detection antibodies were added to the plates for one hour followed by washing and development using 3, 3′, 5, 5′-tetramethylbenzidine (TMB) as substrate. Optical density measurements at 650 nm were recorded.

| binding result | Binder |
| --- | --- |
| no binding (tested: 1 ug/mL) | B1 |
| no binding (tested: 1 ug/mL) | B2 |

Molecular target: T2, TrkB-Ig (human, UniProt Q16620)
T2 construct: extracellular domain
Experiment: as above
Procedure: as §1

| binding result | Binder |
| --- | --- |
| no binding (tested: 1 ug/mL) | B3 |
| no binding (tested: 1 ug/mL) | B4 |
| no binding (tested: 1 ug/mL) | B5 |
| no binding (tested: 1 ug/mL) | B6 |
| no binding (tested: 1 ug/mL) | B1 |
| no binding (tested: 1 ug/mL) | B2 |

Molecular target: T3, CD28-Ig (human, UniProt P10747)
T3 construct: extracellular domain
Experiment: as above
Procedure: as §1

| binding result | Binder |
| --- | --- |
| no binding (tested: 1 ug/mL) | B1 |
| no binding (tested: 1 ug/mL) | B2 |

Molecular target: PD1-Ig
Sequence (chain, as listed by the source limits assumed): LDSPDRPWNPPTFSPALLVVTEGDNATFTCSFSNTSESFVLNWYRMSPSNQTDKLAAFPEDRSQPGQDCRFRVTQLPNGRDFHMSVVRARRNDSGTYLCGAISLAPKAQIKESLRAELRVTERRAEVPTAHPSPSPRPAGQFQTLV
Experiment: as above
Procedure: as §1

| binding result | Binder |
| --- | --- |
| no binding (tested: 1 ug/mL) | B3 |
| no binding (tested: 1 ug/mL) | B4 |
| no binding (tested: 1 ug/mL) | B5 |
| no binding (tested: 1 ug/mL) | B6 |
| no binding (tested: 1 ug/mL) | B1 |
| no binding (tested: 1 ug/mL) | B2 |

Molecular target: T4, CTLA4-Ig (human, UniProt P16410)
T4 construct: extracellular domain
T4 sequence (P16410 36-161): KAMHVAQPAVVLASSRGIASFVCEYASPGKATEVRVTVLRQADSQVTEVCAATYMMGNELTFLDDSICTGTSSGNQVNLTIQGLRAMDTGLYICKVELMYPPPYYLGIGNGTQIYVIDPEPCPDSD
Experiment: as above
Procedure: as §1

| binding result | Binder |
| --- | --- |
| no binding (tested: 1 ug/mL) | B3 |
| no binding (tested: 1 ug/mL) | B4 |
| no binding (tested: 1 ug/mL) | B5 |
| no binding (tested: 1 ug/mL) | B6 |
| no binding (tested: 1 ug/mL) | B1 |
| no binding (tested: 1 ug/mL) | B2 |

Molecular target: T5, recombinant human BTLA fusion protein (human, UniProt Q7Z6A9 31-156)
T5 construct: also called BTLA-Ig; BTLA Ig antigen; not shown: Ig fusion partner
T5 sequence (Q7Z6A9 other isoform, or with tags, fused parts or gaps): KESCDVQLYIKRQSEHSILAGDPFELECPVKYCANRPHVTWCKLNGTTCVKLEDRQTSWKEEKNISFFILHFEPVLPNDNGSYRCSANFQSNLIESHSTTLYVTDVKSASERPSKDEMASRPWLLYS
Experiment: Biacore 3000, antibody captured by anti-CH1, BTLA fusion protein 200 nM in solution
Procedure: The binding of the 1B4, E4H9, 3C2, 6A5, 11E2 and 10116 antibodies to recombinant BTLA protein was examined by BIAcore™ using an antibody capture method. Each of the six anti-BTLA monoclonal antibodies were captured using anti-CH1, a reagent antibody that is specific towards the heavy chain constant region 1 of human antibody (Zymed, Clone HP6045, Stock conc. 1.0 mg/mL). Anti-CH1 was coated on a CM5 chip (BR-1000-14, Research Grade) at high density (6200-7960 RUs). The coating was carried out based on the standard immobilization procedure recommended by the manufacturer. The 1B4, E4H9, 3C2, 6A5, 11E2 and 10116 purified antibodies, with concentrations ranging from 1-10 μg/mL, were each then captured on the anti-CH1 coated chip surface at a flow-rate of 10 μl/min for 0.5-1 minute. A single concentration of recombinant human BTLA fusion protein (200 nM) was injected over captured antibody for 4 minutes at a flow rate of […]. The antigen was allowed to dissociate for 10 minutes. The chip surface was regenerated after each cycle with 10 μL of 30 mM NaOH, followed by 30 μl of HBS EP wash. Isotype controls were run on the chip, and the data used to subtract non-specific binding. All the experiments were carried out on a Biacore 3000 surface plasmon resonance instrument, using BIAcore Control software v 3.2. Data analysis was carried out using BiaEvaluation v3.2 software.

| Kd | koff | kon | Binder |
| --- | --- | --- | --- |
| 5.74 nM | 0.000284 s⁻¹ | 49400 M⁻¹ s⁻¹ | B3 |
| 0.006 nM | 3e-07 s⁻¹ | 45700 M⁻¹ s⁻¹ | B6 |
| 6.65 nM | 0.000301 s⁻¹ | 45200 M⁻¹ s⁻¹ | B1 |
| 3.82 nM | 0.000153 s⁻¹ | 40000 M⁻¹ s⁻¹ | B7 |

Molecular target: T6, recombinant human BTLA expressed at the cell surface of CHO cells (human, UniProt Q7Z6A9 31-289)
T6 construct: also called BTLA-CHO cells; BTLA CHO cells
T6 sequence (Q7Z6A9 31-289 R157S limits assumed): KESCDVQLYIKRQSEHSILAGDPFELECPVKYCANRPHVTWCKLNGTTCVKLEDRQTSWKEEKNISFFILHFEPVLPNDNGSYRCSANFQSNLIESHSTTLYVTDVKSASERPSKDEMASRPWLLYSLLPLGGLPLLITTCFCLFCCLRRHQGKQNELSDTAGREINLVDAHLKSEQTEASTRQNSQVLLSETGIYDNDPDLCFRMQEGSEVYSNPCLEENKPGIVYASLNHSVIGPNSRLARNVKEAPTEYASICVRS
Experiment: flow cytometry on BTLA-transfected CHO cells, PE anti-human IgG detection, MFI against log nM IgG
Procedure: Chinese hamster ovary (CHO) cell lines that express recombinant human BTLA at the cell surface were developed and used to determine the specificity of BTLA human monoclonal antibodies by flow cytometry. CHO cells were transfected with expression plasmids containing full length cDNA encoding transmembrane forms of BTLA. Binding of the anti-BTLA human monoclonal antibodies was assessed by incubating the transfected cells with the anti-BTLA human monoclonal antibodies at a concentration from 0.01 nM to 66 nM. The antibodies were incubated with 10⁵ BTLA CHO cells for 60 minutes at 4° C. in PBS1% BSA. […] The EC₅₀ was determined graphically by plotting the mean flourescence intensity (MFI) versus the log of the antibody concentration using Prism graphing software (GraphPad software). Flow cytometric analyses were performed using a FACSArray flow cytometry (Becton Dickinson, San Jose, Calif.). The results are depicted in FIG. 28A.

| EC50 | Binder |
| --- | --- |
| 1.34 nM | B3 |
| 0.373 nM | B5 |
| 1.56 nM | B8 |
| 1.55 nM | B6 |
| 1.78 nM | B1 |
| 3.25 nM | B2 |
| 1.89 nM | B7 |

Molecular target: T6, recombinant human BTLA expressed at the …
Experiment: FACS blocking assay: antibody pre-incubated with BTLA-CHO cells, then 0.5 ug/ml biotin HVEM Ig, streptavidin-PE detection
Procedure: The ability of BTLA Mabs to block binding of BTLA to HVEM was also determined by FACS, and is expressed as the concentration of anti-BTLA IgG to block half the maximal binding of HVEM Ig to 10⁵ BTLA CHO cells (IC₅₀). BTLA CHO cells and antibody at various concentrations were pre-incubated for 30 minutes at 4° C., and then 0.5 ug/ml biotin labeled HVEM Ig (R & D Systems BAF 356) was added to the BTLA CHO-IgG mix and incubated for another 30 minutes. Cells were washed 2× in PBS-1% BSA, and binding of biotin HVEM Ig was detected by FACS after staining the cells with streptavidin-PE (BD Parmingen 3554061). IC₅₀ values were determined graphically using the Prism software (GraphPad Software). Results are depicted in FIG. 28B and FIG. 28C.

| IC50 | Binder |
| --- | --- |
| 1.9 nM | B3 |
| 0.34 nM | B5 |
| 1.02 nM | B8 |
| 1.05 nM | B6 |
| 1.97 nM | B1 |
| 2.73 nM | B2 |
| 2.13 nM | B7 |

Molecular target: T5, recombinant human BTLA fusion protein
Experiment: Biacore, BTLA fusion protein coupled to CM5 chip, antibody flowed at 267 nM
Procedure: Anti-BTLA antibodies were characterized for affinities and binding kinetics by Biacore analysis (Biacore AB, Uppsala, Sweden). Purified recombinant human BTLA fusion protein was covalently linked to a CM5 chip (carboxy methyl dextran coated chip) via primary amines, using standard amine coupling chemistry and kit provided by Biacore. Binding was measured by flowing the antibodies in HBS EP buffer (provided by Biacore AB) at a concentration of 267 nM at a flow rate of 50 μl/min. The antigen-antibody association kinetics was followed for 3 minutes and the dissociation kinetics was followed for 7 minutes. The association and dissociation curves were fit to a 1:1 Langmuir binding model using BIAevaluation software (Biacore AB). To minimize the effects of avidity in the estimation of the binding constants, only the initial segment of data corresponding to association and dissociation phases were used for fitting.

| Kd | Binder |
| --- | --- |
| 2.88 nM | B3 |
| 0.13 nM | B6 |
| 0.88 nM | B1 |
| 0.61 nM | B2 |

Source: patent US20100172900A1 (Bristol-Myers Squibb, published 2010)
